According to publication doi:10.1101/2024.04.24.590896 (bioRxiv, 2024):

B1: Sec20 SNARE domain (aa 133-198) (domain or fragment)
chain: QTSSSITESLMGISRMMSQQVQQSEEAMQTLVSSSRTLLDANEEFKSMSGTIQLGRKLITKYNRRE
B2: syntaxin 18 SNARE domain (aa 229-312) (domain or fragment)
chain: EEIQMFEQENQRLIGEMNSLFDEVRQIEGKVVEISRLQEIFTEKVLQQETEIDSIHQLVVGATENIKEGNEDIREAIKNNAGFR
B3: Use1 SNARE domain (aa 174-239) (domain or fragment)
chain: QRHQGLQEKLAEEMLGLARSLKTNTLAAQSVIKKDNQTLSHSLKMADQNLEKLKLESERLEQHAQK
B4: U_SNAP (Sec20, aa 133-198; Use1, aa 174-239) (other)
chain: QTSSSITESLMGISRMMSQQVQQSEEAMQTLVSSSRTLLDANEEFKSMSGTIQLGRKLITKYNRREGLSVSPSNKLKSSDAYKKAWGNNQDGVVASQPARVVDEREQMAISGGFIRRVTNDQRHQGLQEKLAEEMLGLARSLKTNTLAAQSVIKKDNQTLSHSLKMADQNLEKLKLESERLEQHAQK

Columns and labels:
[1] = target: B2; test: SEC
[2] = target: synaptobrevin 2 (aa 1-96) (Rattus norvegicus, UniProt P63045 1-96); test: native gel or EMSA
[3] = target: B1; test: SEC
[4] = target: B2; test: native gel or EMSA + SEC

synaptobrevin 2 (aa 1-96), sequence (P63045 1-96): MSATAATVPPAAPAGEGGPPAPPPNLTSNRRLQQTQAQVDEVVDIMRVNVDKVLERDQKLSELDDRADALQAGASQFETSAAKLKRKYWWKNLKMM

Binder: B1
binding result [1]: binds

Binder: B2
binding result [2]: binds

Binder: B3
binding result [1]: binds
binding result [3]: binds

Binder: B4
binding result [4]: binds
